system: Escherichia coli TOP10; experiment: shrunken log2 fold change of peptide-encoding DNA abundance (4.5 h post-induction vs induction); higher = less antimicrobial activity (less host growth inhibition); conditions: time post-induction: 4.5 h; library: site-saturation at positions 5, 18, 19, 20
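Further: peptides expressed intracellularly from a pBAD plasmid library in pooled LB shake-flask culture, induced with 0.3% L-arabinose, DNA abundance read by NGS, three biological replicates, DESeq2 with apeglm shrinkage.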

Sequence | shrunken log2 fold change
RRIRCRPPRLPRPRPRPLEHPRP | -0.167
RRIRPRPPRLPRPRPRPQSGPRP | 0.259
RRIRYRPPRLPRPRPRPKNHPRP | -0.919
RRIRFRPPRLPRPRPRPDCKPRP | 0.154
RRIRHRPPRLPRPRPRPMSWPRP | -0.106
RRIRIRPPRLPRPRPRPIQTPRP | -0.0155
RRIRERPPRLPRPRPRPIKEPRP | 0.0101
RRIRLRPPRLPRPRPRPFGQPRP | -0.11
RRIRTRPPRLPRPRPRPNSKPRP | -0.848
RRIRNRPPRLPRPRPRPGPCPRP | -0.0814
RRIRPRPPRLPRPRPRPKILPRP | 0.0456
RRIRPRPPRLPRPRPRPTGFPRP | 0.0273
RRIRRRPPRLPRPRPRPVGWPRP | 0.666
RRIRWRPPRLPRPRPRPVGDPRP | 0.33
RRIRYRPPRLPRPRPRPFIGPRP | -1.58
RRIRWRPPRLPRPRPRPCCSPRP | -0.0402
RRIRRRPPRLPRPRPRPGYAPRP | 0.259
RRIRFRPPRLPRPRPRPQHAPRP | -0.202
RRIRKRPPRLPRPRPRPFYFPRP | 0.00515
RRIRERPPRLPRPRPRPKHLPRP | -0.202
RRIRLRPPRLPRPRPRPYWPPRP | -0.518
RRIRFRPPRLPRPRPRPDETPRP | 0.145
RRIRDRPPRLPRPRPRPYFLPRP | -0.49
RRIRPRPPRLPRPRPRPSMYPRP | -0.676
RRIRFRPPRLPRPRPRPIRCPRP | 0.0461

Sequence | shrunken log2 fold change
RRIRDRPPRLPRPRPRPKVGPRP | -0.017
RRIRDRPPRLPRPRPRPIVYPRP | -0.0329
RRIRGRPPRLPRPRPRPHHTPRP | -0.12
RRIRHRPPRLPRPRPRPFVNPRP | -0.124
RRIRIRPPRLPRPRPRPWPQPRP | 0.0274
RRIRCRPPRLPRPRPRPWRHPRP | -0.126
RRIRTRPPRLPRPRPRPGWVPRP | -0.0236
RRIRHRPPRLPRPRPRPDIEPRP | 0.0242
RRIRQRPPRLPRPRPRPYTFPRP | -0.0307
RRIRARPPRLPRPRPRPCLHPRP | 1.24
RRIRIRPPRLPRPRPRPYELPRP | -0.0687
RRIRFRPPRLPRPRPRPYAMPRP | -0.686
RRIRLRPPRLPRPRPRPPRNPRP | 0.356
RRIRGRPPRLPRPRPRPILHPRP | 0.0775
RRIRNRPPRLPRPRPRPQAVPRP | -0.0343
RRIRKRPPRLPRPRPRPPAKPRP | 0.408
RRIRDRPPRLPRPRPRPPCVPRP | 0.152
RRIRLRPPRLPRPRPRPANHPRP | -0.333
RRIRTRPPRLPRPRPRPHFNPRP | -0.556
RRIRNRPPRLPRPRPRPEQAPRP | 0.632
RRIRKRPPRLPRPRPRPMWAPRP | 0.184
RRIRCRPPRLPRPRPRPWGMPRP | -0.16
RRIRLRPPRLPRPRPRPKRDPRP | 0.43
RRIRARPPRLPRPRPRPIYWPRP | 0.0177
RRIRNRPPRLPRPRPRPPPTPRP | 0.867

Sequence | shrunken log2 fold change
RRIRNRPPRLPRPRPRPEKPPRP | -0.233
RRIRQRPPRLPRPRPRPHKTPRP | -0.146
RRIRARPPRLPRPRPRPKLWPRP | 1
RRIRIRPPRLPRPRPRPVRGPRP | 0.413
RRIRMRPPRLPRPRPRPTKCPRP | 0.331
RRIRQRPPRLPRPRPRPTTPPRP | 0.402
RRIRYRPPRLPRPRPRPPYNPRP | -1.41
RRIRWRPPRLPRPRPRPLLVPRP | 0.172
RRIRRRPPRLPRPRPRPVWKPRP | 0.147
RRIRARPPRLPRPRPRPGPAPRP | 0.873
RRIRRRPPRLPRPRPRPGMGPRP | 0.581
RRIRTRPPRLPRPRPRPAQKPRP | -0.00259
RRIRKRPPRLPRPRPRPQKSPRP | 0.0653
RRIRMRPPRLPRPRPRPSFVPRP | -0.0144
RRIRARPPRLPRPRPRPEFNPRP | 1.05
RRIRHRPPRLPRPRPRPRLTPRP | -0.176
RRIRKRPPRLPRPRPRPQAMPRP | 0.146
RRIRARPPRLPRPRPRPGIQPRP | -0.041
RRIRCRPPRLPRPRPRPMMSPRP | -0.0652
RRIRKRPPRLPRPRPRPIPMPRP | 0.0472
RRIRHRPPRLPRPRPRPPDYPRP | 4.26
RRIRIRPPRLPRPRPRPNITPRP | -0.726
RRIRCRPPRLPRPRPRPVALPRP | 0.0824
RRIRKRPPRLPRPRPRPFVDPRP | -0.0489
RRIRRRPPRLPRPRPRPENFPRP | -0.0287

Source: the supplement of paper PMC9112550, “Optimization of the antimicrobial peptide Bac7 by deep mutational scanning” (BMC Biology, 2022)
